From PMC8660800

Molecular target: NOT9 module of the human CCR4-NOT complex (human) (UniProt Q92600)

B1: MBP-RNF219-C (residues 434-726) with a C-terminal StrepII tag (domain or fragment)
chain: SSNVSNKDSSEDDISRSENEKKSECFSSPKTGFWDCCSTSYAQNLDFESSEGNTIANSVGEISSKLSEKSGLCLSKRLNSIRSFEMNRTRTSSEASMDAAYLDKISELDSMMSESDNSKSPCNNGFKSLDLDGLSKSSQGSEFLEEPDKLEEKTELNLSKGSLTNDQLENGSEWKPTSFFLLSPSDQEMNEDFSLHSSSCPVTNEIKPPSCLFQTEFSQGILLSSSHRLFEDQRFGSSLFKMSSEMHSLHNHLQSPWSTSFVPEKRNKNVNQSTKRKIQSSLSSASPSKATKS
  inhibition of deadenylation by 50 nM CCR4-NOT MINI (50 nM 7-mer-A20 RNA, stopped after 32 min), MBP-RNF219-C titrated 0.05-5.0 µM; inhibition already apparent at 0.05 µM: 2.5 µM
